This note sets out measurements from US8598081B2, “Specific delivery of agrochemicals” (priority 2010, dated 2013).

For one assay, the system named is gum arabic. Briefly: VHH binding to gum arabic in ELISA. Set-up: species or system acacia tree. The procedure: Titration of VHH antibody fragments was performed on ELISA plates (Maxisorp, Nunc) coated with 100 μl per well 100 μg/ml gum arabic in 50 mM carbonate pH 9.6. Plates were coated at 4° C. overnight and coating was continued at room temperature for 1 hour on the next day. Plates were washed three times with PBS/0.05%-TWEEN®-20 and blocked with 5% skimmed milk in PBS for 1 hour. Four-fold serial dilutions of purified VHH antibody fragments were prepared in 1% MPBS/0.05%-TWEEN®-20 in polypropylene 96-well plates. Antibody concentrations ranged from 3 μg/ml to 12 ng/ml. Antibody dilutions were transferred to the gum arabic-coated plates and VHH antibody fragments were allowed to bind for 1 hour at room temperature. Bound VHH were detected with sequential incubations with monoclonal mouse anti-histidine antibodies (Abd Serotec) and rabbit anti-mouse IgG whole molecule antibodies conjugated with alkaline phosphatase (RaM/AP) (Sigma) in 1% MPBS/0.05%-TWEEN®-20. Unbound antibodies were removed by washing three times with PBS/0.05%-TWEEN®-20 after each antibody incubation. The plates were washed an additional two times with PBS and 100 μl pNPP disodium hexahydrate substrate (Sigma) was added to each well. The absorbance at 405 nm was measured and plotted as function of antibody concentration (see Table 1).

In another assay the test system is surface of grass leaves. Briefly: VHH binding to non-fixed leaf discs, grass. As to conditions: 5 μg/ml, detection with anti-histidine Alexa-488. The procedure:
VHH binding to non-fixed leaf discs of potato (variety Desiree), black nightshade, grass, wheat or azalea was investigated. For comparison, binding of CBM3a to non-fixed leaf discs of potato (variety Desiree) was analyzed in parallel. Leaf discs were prepared by punching a fresh potato leaf with a 5 mm belt hole puncher tool. Leaf discs were put immediately in wells of a 96-well plate containing 200 μl per well 5% MPBS or PBS, and incubated for 30 minutes. Leaf discs were transferred to solutions containing 5 μg/ml VHH antibody fragment, respectively, 5 μg/ml CBM3a in 2% MPBS or PBS and incubated for 60-90 minutes. Unbound VHH or CBM3a proteins were removed by washing three times with 2% MPBS or PBS. Bound VHH or CBM3a proteins were detected with incubation with monoclonal mouse anti-histidine antibodies directly conjugated with Alexa-488 fluorescent dye (Abd Serotec) in 1% MPBS for 1 hour. Unbound antibodies were removed by washing three times with PBS. Leaf discs were put on glass slides, covered with cover slips, and analyzed by microscopy or on a macrozoom microscope system (Nikon) or a SP5 confocal microscope system (Leica).

The nature of assay [1]: ELISA-like assay of VHH-coupled microcapsules, unrelated antigen-coated wells. It counts as binding. The note with it: uvitex OB microcapsules. The procedure: Polyurea microcapsules were produced by interfacial polymerization. With the objective to generate functionalized polyurea microcapsules, VHH were coupled to microcapsules containing either the insecticide lambda cyhalothrin or the fluorescent tracer molecule Uvitex OB and a shell with incorporated lysine to surface-expose carboxylic acid residues. Lambda cyhalothrin was dissolved in benzyl benzoate in concentrations between 30% and 66% before encapsulation. Alternatively, a core of 1.5% Uvitex in benzyl benzoate was used for easy fluorescent visualization of microcapsules. Toluene diisocyanate (TDI) and polymethylenepolyphenylene isocyanate (PMPPI) were dissolved in the oil phase in different ratios and concentrations in the oil phase to produce desired shell characteristics. Stirring speed for the emulsion was varied to control droplet size and consequently microcapsule diameter. Microcapsules with approximate diameters of 5 μm, 10 μm, or 50 μm were successfully produced. Bifunctional lysine and trifunctional diethylene triamine (DETA) were used in different ratios and/or added sequentially during encapsulation to on the one hand maximize amounts of carboxylic acids on the microcapsules' surface and on the other hand obtain sufficient strength of capsule shells. Microcapsules were washed with water after production and stored as microcapsule suspensions in water. The microcapsules were washed with 100 mM MES, 500 mM NaCl, pH 6.0 immediately before coupling of VHH using a vacuum-tight filter flask and P 1.6 filter funnel (Duran). Alternatively, glass filter holders with 0.45 μm disposable membrane filters (Millipore) or 0.45 μm 96-well deep-well filtration plates (Millipore) were used. Couplings of VHH to microcapsules were performed using carbodiimide-mediated couplings using a one-step procedure, a two-step procedure without N-hydroxysuccinimide (NHS), or a two-step procedure with NHS. The major difference between one-step coupling and two-step coupling procedures is the occurrence of cross-linking of VHH in one-step coupling procedures. The protocols for the three procedures are largely similar and differ as follows. For one-step couplings VHH were added to washed microcapsules and 1-Ethyl-3-[3-dimethylaminopropyl]carbodiimide Hydrochloride (EDC) (Pierce) was added and coupling reaction was allowed for 2 hours at room temperature. For two-step couplings washed microcapsules were first activated with EDC in the presence or absence of NHS. Excess unreacted EDC (and NHS) were removed by quick sequential washes with ice-cold buffers and VHH were added and allowed to react with activated carboxylic acids on microcapsule shells. For ø 10 μm microcapsules 2-20 μg VHH were coupled per mg microcapsules. […]

The subject of another assay is azalea leaf discs. Put plainly: Leaf disc binding assay with VHH-coupled microcapsules, azalea. The note with it: Uvitex microcapsules. The method, then:
A leaf disc binding assay was used to evaluate the interaction of VHH-coupled microcapsules with potato, grass and azalea leaves. ø 8 mm leaf discs were sampled from the leaves of potato pot plants (variety Desiree), from the leaves of greenhouse-grown Lollium perenne and from the leaves of azalea pot plants. Leaf discs were washed three times with PBS. Microcapsules containing lambda cyhalothrin or Uvitex were diluted to appropriate densities in 1% skimmed milk in PBS with 0.05%-TWEEN®-20. Microcapsules were added to the leaf discs and settling of microcapsules and binding of targeting agents allowed for 1 hour. Unbound microcapsules were removed by washing three to five times with PBS with 0.05%-TWEEN®-20.
Leaf discs with Uvitex microcapsules were analyzed for bound microcapsules on a macrozoom microscope system (Nikon). Microcapsules were counted using Volocity image analysis software (Perkin Elmer). A DAPI filter was used to visualize Uvitex microcapsules. Controls for Uvitex microcapsules included blank microcapsules to which no VHH were coupled and microcapsules to which unrelated VHH were coupled.

B1: VHH 3E6: VHH binding gum arabic, potato lectin and leaf surface; SEQ ID NO:7 by order of the list (protein, listed as Lama glama)
VHH: QVQLQESGGGLVQPGGTLSLSCAASGFNVRWYGMGWFRQAPGKEREGVACISALQETTAYADSVKGRFTLSRDNPKNTLSLQMNNLQPEDTGVYYCATTDCDDSSRMTYTSYLGQGTQVTVSS
modifications: 3E6
As to B1, the “absorbance at 405 nm” value is given as 0.882 with gum arabic (Table 2, gum arabic coating, VHH 3 μg/ml) and 0.090 in the assay with gum arabic ([VHH] 3 μg/ml (200 nM), gum arabic − (well without gum arabic)). The “binding to native grass leaf surface (fluorescence microscopy)” value is “binding to leaf surface and wounded plant tissue” in the assay with surface of grass leaves; “bind specifically” in the assay on surface of grass leaves (listed as 3E6).

B2: Microcapsules containing uvitex OB VHH 3E6: polyurea microcapsules containing the fluorescent tracer Uvitex OB, coupled with (monovalent) VHH 3E6 (conjugate)
VHH: B1 VHH
modifications: left off: small tags and cut ends
notes: polyurea microcapsules containing the fluorescent tracer Uvitex OB, coupled with (monovalent) VHH 3E6
As to B2, the “Area of bound microcapsules” value in assay [1] (no coating (second series, with unrelated antigen rows), surface coverage 100%) was determined as 68.181; in assay [1] (unrelated antigen, surface coverage 4%) it was 23.525; in assay [1] (unrelated antigen, surface coverage 20%), 47.906; in assay [1] (unrelated antigen, surface coverage 100%) it was 84.508. The “specific binding of microcapsules to azalea leaf discs” value in the assay with azalea leaf discs was “no specific binding”.
